Test results as given in publication doi:10.1101/2025.07.11.664400 (bioRxiv, 2025).

Assays:
[1] = biological target: T1, RecBCD (Escherichia coli, UniProt P08394;P07648;P04993 1-1180;1-1122;1-608); experiment: fluorescence titration
[2] = biological target: T2, RecBΔNucCD (Escherichia coli, UniProt P08394;P07648;P04993 1-929;1-1122;1-608); experiment: fluorescence titration
[3] = biological target: T2, RecBΔNucCD; experiment: fluorescence titration; remark: listed apart in the source
[4] = biological target: T2, RecBΔNucCD; experiment: ITC
[5] = biological target: T1, RecBCD; experiment: fluorescence competition
[6] = biological target: T2, RecBΔNucCD; experiment: fluorescence competition
[7] = biological target: T2, RecBΔNucCD; experiment: ITC; remark: listed apart in the source

B1: Reference DNA (dsDNA)
DNA 1: CCATGGCTCCTGAGCTAGCTGCAGTAGCCTAAAGGATGAAACTAGGATCTTATGCTCCAGTTTT
DNA 2: CTGGAGCATAAGATCCTAGTTTCATCCTTTAGGCTACTGCAGCTAGCTCAGGAGCCATGGTTTT
Binder B1 has a Ka [1] of 3.2e+07 M⁻¹, a Ka [2] of 1.6e+08 M⁻¹ and a Ka [3] of over 2e+09 M⁻¹.

B2: Blunt ended DNA (dsDNA)
DNA 1: CCATGGCTCCTGAGCTAGCTGCAGTAGCCTAAAGGATGAAACTAGGATCTTATGCTCCAG
DNA 2: CTGGAGCATAAGATCCTAGTTTCATCCTTTAGGCTACTGCAGCTAGCTCAGGAGCCATGG
B2 showed a Ka [4] of 1.2e+07 M⁻¹, a Ka [5] of 1.4e+07 M⁻¹ and a Ka [6] of 4.7e+07 M⁻¹. The Ka [7] was over 1e+09 M⁻¹.
